The labels stand for the following.
B1: HDV Ribozyme (parent)
chain: GGCCGGCAUGGUCCCAGCCUCCUCGCUGGCGCCGGCUGGGCAACAUUCCGAGGGGACCGUCCCCUCGGUAAUGGCGAAUGGGACCCA

The data set covers variants of B1. Description: self-cleavage, relative activity (ratio to wild type); higher = more cleavage; co-transcriptional.
For C4U U12G, the self-cleavage was found to be 0.465.

Regarding U9A C21A, the self-cleavage is 0.0739.

Take G50A C64A: the self-cleavage was determined as 0.479.

For C15G C84G, the self-cleavage worked out at 0.222.

For U72G A83U, the self-cleavage amounted to 0.166.

As to C33G A87G, the self-cleavage was found to be 0.116.

Take C14A A45U: the self-cleavage amounted to 0.467.

In the case of G17A G31U, the self-cleavage came out at 0.102.

Regarding U12C G55U, the self-cleavage was 0.59.

Regarding G31U G80A, the self-cleavage stood at 0.0519.

G6C U23C: the self-cleavage came to 0.0639.

As to A16G U23G, the self-cleavage amounted to 1.16.

Take G6C A78C: the self-cleavage was determined as 0.0831.

In the case of G35U G82C, the self-cleavage amounted to 0.161.

For G28U C36A, the self-cleavage was 0.0898.

Turning to G11C U69A, the self-cleavage was 0.166.

In the case of C7A C63A, the self-cleavage turned out to be 0.489.

Take C26U C84U: the self-cleavage is 1.05.

As to C24U A45U, the self-cleavage was 0.489.

As for G35C G81C, the self-cleavage came to 0.19.

For the variant U46A C85A, the self-cleavage was 0.7.

Turning to G10A, the self-cleavage was found to be 0.779.

Take G80U C86U: the self-cleavage was 0.281.

Regarding C30G A83C, the self-cleavage came to 0.0489.

On to G17C C36U, for which the self-cleavage came to 0.0339.

G17C C36G: the self-cleavage was 0.122.

As to G59A G82C, the self-cleavage was found to be 0.208.

Take C14U C58U: the self-cleavage worked out at 0.991.

Take C24U A42G: the self-cleavage was found to be 0.0923.

As to G52A G80C, the self-cleavage came to 0.272.

With G5C A70C, the self-cleavage stood at 0.158.

As to U27C C30A, the self-cleavage came to 0.415.

C7U A43U: the self-cleavage was 0.475.

Turning to C66G G74A, the self-cleavage was found to be 0.471.

With C30A A42U, the self-cleavage was found to be 0.241.

For the variant G39A A78U, the self-cleavage was 0.201.

Consider C36G U47A, for which the self-cleavage came to 0.177.

Consider C30A C44G, for which the self-cleavage was 0.0831.

As to C13A G76U, the self-cleavage came to 0.317.

With G54A A78U, the self-cleavage came to 0.245.

Regarding C15G G68A, the self-cleavage was 0.525.

Take U72A G82C: the self-cleavage amounted to 0.208.

For the variant C62G U79G, the self-cleavage is 1.03.

With U20G C33A, the self-cleavage was 0.119.

As to G2A A45G, the self-cleavage is 0.0779.

In the case of C30U C63G, the self-cleavage was determined as 0.47.

G55C G67U: the self-cleavage worked out at 0.967.

In the case of U23A U79C, the self-cleavage is 0.369.

Turning to C30G G35A, the self-cleavage was determined as 0.191.

C21A C64G: the self-cleavage stood at 0.0604.

For C49A A87U, the self-cleavage amounted to 0.857.

Take G39U U79G: the self-cleavage was 0.277.

As to G31U A83C, the self-cleavage amounted to 0.0898.

Take C15U A51C: the self-cleavage is 1.17.

With U20C C84U, the self-cleavage was found to be 0.111.

For the variant C7A C13A, the self-cleavage is 0.185.

For the variant U37C G38U, the self-cleavage came to 0.0773.

Take G29U U65G: the self-cleavage amounted to 0.0755.

Turning to C7G C41U, the self-cleavage was found to be 0.0615.

Regarding C26U G35U, the self-cleavage stood at 0.641.

In the case of G6C A71U, the self-cleavage turned out to be 0.138.

Regarding G35U C62U, the self-cleavage was determined as 0.486.

In the case of U20C G82U, the self-cleavage amounted to 0.0449.

As to G35A G76U, the self-cleavage worked out at 0.902.

As to C41A C44U, the self-cleavage stood at 0.692.

As for C41G G59C, the self-cleavage is 0.919.

As for G31U A51U, the self-cleavage is 0.525.

For the variant U9C G81A, the self-cleavage came out at 0.415.

For the variant C49A U79C, the self-cleavage is 0.61.

Take C7A U20C: the self-cleavage was 0.

On to U47C A70G, for which the self-cleavage worked out at 1.08.

G1C C30G: the self-cleavage is 0.128.

For the variant G31A C32G, the self-cleavage is 0.198.

As to G35C A43G, the self-cleavage was found to be 0.111.

With C66A C84A, the self-cleavage was 0.831.

In the case of G5C C66U, the self-cleavage stood at 0.106.

Turning to A42U C63U, the self-cleavage was 0.506.

For U27G A87G, the self-cleavage was found to be 0.774.

In the case of U37G C85A, the self-cleavage amounted to 0.0875.

Take A45U G54C: the self-cleavage came out at 0.849.

U20A G82U: the self-cleavage turned out to be 0.0875.

Regarding G2U A70G, the self-cleavage is 0.0715.

Regarding G5U C36U, the self-cleavage stood at 0.104.

As for U9A G25A, the self-cleavage is 0.426.

G10U U27G: the self-cleavage is 0.465.

Regarding G1A C32G, the self-cleavage was found to be 0.113.

On to G73C G81U, for which the self-cleavage is 0.259.

In the case of G17U C49U, the self-cleavage was determined as 0.356.

For the variant G6A G54C, the self-cleavage came out at 0.672.

Take C22G C30A: the self-cleavage amounted to 0.0652.

C33A C61U: the self-cleavage came to 0.265.

For the variant G34A C49U, the self-cleavage came out at 0.3.

On to A43U G76U, for which the self-cleavage amounted to 0.307.

Consider G5U C22G, for which the self-cleavage turned out to be 0.0615.

With G10C C21G, the self-cleavage was found to be 0.032.

C22A C26A: the self-cleavage was 0.262.

As for C4G G40C, the self-cleavage stood at 0.128.

Take G25C G40A: the self-cleavage was determined as 0.0386.

With U37C C63A, the self-cleavage came out at 1.03.

Regarding A45G C58G, the self-cleavage was 1.14.

For G2C A16U, the self-cleavage worked out at 0.0282.

Take C21G G38A: the self-cleavage amounted to 0.0339.

For the variant U12G G40C, the self-cleavage was determined as 0.123.

Regarding G11A C84U, the self-cleavage was found to be 0.991.

As for U12A G82U, the self-cleavage was determined as 0.161.

Regarding C32A G80U, the self-cleavage was 0.0472.

Take G80U C85U: the self-cleavage turned out to be 0.227.

Regarding G6U G34U, the self-cleavage was 0.0755.

Take G74C G81A: the self-cleavage stood at 0.0875.

Turning to C30A U69G, the self-cleavage turned out to be 0.469.

For the variant G35U G59C, the self-cleavage worked out at 0.7.

In the case of U37G A87U, the self-cleavage amounted to 0.148.

In the case of A51G G54U, the self-cleavage is 1.07.

As to C3U A43C, the self-cleavage turned out to be 0.293.

With A42G C85U, the self-cleavage worked out at 0.767.

Regarding G6A A77G, the self-cleavage came out at 0.277.

As for C30U C41U, the self-cleavage was determined as 0.447.

For G35A U37C, the self-cleavage amounted to 0.396.

On to A42U C48A, for which the self-cleavage was 0.485.

With C3A G17A, the self-cleavage was 0.104.

For U37C A45C, the self-cleavage is 0.539.

With G55C G81A, the self-cleavage was found to be 0.496.

Take G76A C86G: the self-cleavage worked out at 1.08.

For the variant G10U U65G, the self-cleavage was 0.619.

Take C18U C49U: the self-cleavage turned out to be 0.587.

In the case of G2C C64A, the self-cleavage worked out at 0.0652.

Consider U46G C75U, for which the self-cleavage worked out at 0.107.

Regarding C22A G35C, the self-cleavage amounted to 0.

Turning to C7A A16C, the self-cleavage is 0.277.

In the case of C30U C33U, the self-cleavage was determined as 0.369.

As to U65A G67U, the self-cleavage worked out at 0.767.

Turning to C13A G40C, the self-cleavage was 0.

Consider U37A C49U, for which the self-cleavage is 0.155.

In the case of C63G C84U, the self-cleavage came out at 0.629.

Consider A42U G76A, for which the self-cleavage is 0.764.

For G34C C62U, the self-cleavage was 0.262.

On to C75U A83C, for which the self-cleavage turned out to be 0.128.

Turning to C21G C64G, the self-cleavage was 0.

C14U C48A: the self-cleavage was 0.928.

Take U20C C41U: the self-cleavage was 0.0449.

On to G38U A83U, for which the self-cleavage was found to be 0.0959.

With G35U A51U, the self-cleavage is 0.471.

Consider U20G G81U, for which the self-cleavage was found to be 0.

Regarding G1U U27G, the self-cleavage turned out to be 0.522.

On to U27G G80U, for which the self-cleavage is 0.224.

With U60G C84U, the self-cleavage turned out to be 0.798.

G59U C61U: the self-cleavage stood at 0.997.

G59U U65A: the self-cleavage turned out to be 0.912.

In the case of C44G C75U, the self-cleavage worked out at 0.0627.

C32G A87C: the self-cleavage is 0.0545.

Regarding U46G U69G, the self-cleavage turned out to be 0.776.

Consider G34A C36U, for which the self-cleavage was 0.0623.

As to U12C G54U, the self-cleavage turned out to be 0.415.

On to C18A G59U, for which the self-cleavage was 0.113.

Consider G53C C62U, for which the self-cleavage turned out to be 1.03.

On to C21U G74U, for which the self-cleavage came to 0.0875.

Regarding G25A C57G, the self-cleavage was 0.224.

With U65C G76A, the self-cleavage was 0.918.

As to U27C C48G, the self-cleavage was determined as 0.831.

In the case of G10C C19U, the self-cleavage is 0.0264.

Regarding G40U C44U, the self-cleavage was determined as 0.143.

As for G11C U47C, the self-cleavage was determined as 0.453.

As for G54U G68U, the self-cleavage is 0.842.

Regarding G59U U79G, the self-cleavage was 0.692.

Turning to G54U A56C, the self-cleavage came out at 0.861.

Take A45G G59C: the self-cleavage was 1.02.

Take G28C C62U: the self-cleavage stood at 0.0369.

Values taken from the RNAGym collection of RNA variant scans (doi:10.7554/elife.80360).
